The values that follow come from patent US20200002383A1.

Assay [1] has as its target CH505 w030.21 gp120 (HIV-1). Put plainly: ELISA.
Assay [2] deals with CH505 w030.28 gp120 (HIV-1). In words: ELISA. In general terms: In an ELISA, binding on a coated surface is turned into a signal by an enzyme label.
Assay [3] deals with CH505 w100.B6 gp120 (HIV-1). In words: ELISA.
Assay [4] deals with CH505 M5 gp120 (HIV-1). In words: ELISA.
The target of assay [5] is CH505 M11 gp120 (HIV-1). Put plainly: ELISA.
Assay [6] deals with CH505 w053.31 gp120 (HIV-1). Put plainly: ELISA.
Assay [7] addresses CH505 transmitted/founder (TF) gp120 Env (HIV-1). In words: ELISA.
Assay [8] has as its target CH505 w078.15 gp120 (HIV-1). Put plainly: ELISA.
Assay [9] addresses CH505 w020.14 gp120 (HIV-1). Put plainly: ELISA.
In assay [10] the target is CH505 w078.33 gp120 (HIV-1). Put plainly: ELISA.
For assay [11], the target named is CH505 w053.16 gp120 (HIV-1). Put plainly: ELISA.
In assay [12] the target is CH505 TF loop D mutant M20 Env on virus (HIV-1).
Assay [13] concerns the target CH505 TF loop D mutant M7 Env on virus (HIV-1).
The target of assay [14] is CH505 TF loop D mutant M8 Env on virus (HIV-1).
Assay [15] addresses CH505 TF loop D mutant M9 Env on virus (HIV-1).
In assay [16] the target is BG505 SOSIP.664 gp140 trimer (HIV-1). In words: negative-stain EM.
For assay [17], the target named is CH505 transmitted/founder (TF) gp120 Env (HIV-1). Put plainly: SPR. (In general: In SPR one partner is held on a chip, and binding of the other changes the refractive index at the surface.)
The target is the same in assay [18]. In words: SPR, antibody captured, gp120 injected.
Assay [19] addresses CH505 TF CHIM.6R.SOSIP.664V4.1 trimer (HIV-1). In words: kinetic binding assay of FIG. 69.

On to CH103 lineage IA1 (antibody), for which the log AUC in assay [1] came to 11.8 log AUC; in assay [2], 10.1 log AUC; in assay [3], 12.2 log AUC; in [4], 7 log AUC; in assay [5], 12.2 log AUC; in assay [6], 13.4 log AUC. The log AUC in [7] is 10.4 log AUC; in assay [8] it was 10.9 log AUC; in [9], 10.3 log AUC; in assay [10], 8.2 log AUC; in assay [11], 8.8 log AUC.

In [4], CH235 UCA (antibody) came in with a log AUC of 0.2 log AUC.

With CH103 lineage IA6 (antibody), the log AUC in assay [2] stood at 6.3 log AUC; in [4], 3.3 log AUC; in assay [5], 10 log AUC; in [7] it was 9.1 log AUC; in assay [8], 1 log AUC; in [9] it was 7.9 log AUC.

In the case of CH103 lineage IA7 (antibody), the log AUC in assay [2] is 3.5 log AUC; in assay [4], 2.3 log AUC; in assay [5], 10.1 log AUC; in assay [7], 9.2 log AUC; in assay [8], 0.7 log AUC; in assay [9], 7.2 log AUC.

A word on the IC50: it is the concentration that gives 50% inhibition. In the case of CH235.9 N30T (antibody), the concentration for half-maximal inhibition (IC50) in [12] was over 44 µg/mL; in [13], over 44 µg/mL; in assay [14] it was 24.3 µg/mL; in assay [15] it was over 44 µg/mL.

For CH235 lineage I1 (antibody), the log AUC in [2] stood at 2.4 log AUC; in assay [4], 9.2 log AUC; in [5] it was 2.8 log AUC; in [9], 6.5 log AUC.

CH103 lineage IA3 (antibody): the log AUC stood at 7.7 log AUC in assay [2]; 6.8 log AUC in [4]; 11.8 log AUC in [5]; 11 log AUC in assay [7]; 3 log AUC in [8]; 9.5 log AUC in assay [9]. The substance also came in with a log AUC in assay [11] of 1.1 log AUC.

CH235.9 (antibody) displayed a concentration for half-maximal inhibition (IC50) in [14] of 0.66 µg/mL.

Take CH235 Fab: in [16], the stoichiometry (Fabs per trimer) (Fab per trimer) is 1.

Regarding CH103 lineage IA8 (antibody), the log AUC in assay [2] worked out at 1.6 log AUC; in [4], 0.6 log AUC; in assay [5], 6.2 log AUC; in assay [7], 5.5 log AUC; in assay [9] it was 3.4 log AUC.

On to CH235 lineage I2 (antibody), for which the results for the log AUC in [4] and in assay [9] were 6.9 log AUC and 1.2 log AUC, respectively.

CH235 lineage IA4 (antibody) showed a log AUC in assay [4] of 1.4 log AUC.

Consider “CH103 lineage IA4 (from UniProt P27701) (antibody)”, for which the log AUC in assay [2] is 6.5 log AUC; in assay [4], 3.8 log AUC; in [5] it was 10.5 log AUC; in assay [7], 10.1 log AUC; in [8], 1.3 log AUC; in [9], 8.6 log AUC. The same substance returned a log AUC in assay [11] of 0.2 log AUC.

For the substance CH103 lineage IA2 (antibody), the log AUC in [1] was 11.5 log AUC; in assay [2], 11.1 log AUC; in assay [3], 12.1 log AUC; in [4] it was 7.8 log AUC; in assay [5], 12.7 log AUC; in assay [6], 13.3 log AUC. The log AUC was 10.8 log AUC in assay [7]; 11.5 log AUC in assay [8]; 11 log AUC in [9]; 9 log AUC in [10]; 9.3 log AUC in assay [11].

For the substance CH235 lineage I3 (antibody), the log AUC in assay [4] was 7 log AUC; in [9] it was 2.7 log AUC.

What is called Kd is the equilibrium constant for the complex coming apart. Higher therefore signals weaker binding. As usually defined, the kon is a measure of how fast the partners come together. A high value points to fast association. Consider CH103 UCA (antibody), for which the log AUC came to 2.6 log AUC in assay [5], 3.5 log AUC in assay [7] and 0.3 log AUC in assay [9]. The Kd in assay [17] was found to be 0.2 µM; in assay [18] it was 0.227 µM. In addition, in [18], the kon worked out at 37000 M⁻¹ s⁻¹. Moreover, the fold change of the off-rate against CH505 TF gp120 in [19] was 10 fold.
